Experimental data published in patent US20240336701A1 (Novartis, published 2024).

Assays:
[1] = target: recombinant human ENTPD2 extracellular domain (residues 29-462) with C-terminal Avi-His6 tag (human, UniProt Q9Y5L3 29-462); test: cell-based or functional assay
[2] = target: T1, human ENTPD2, full length, on cells (human, UniProt Q9Y5L3 1-495); test: cell-based or functional assay
T1 sequence: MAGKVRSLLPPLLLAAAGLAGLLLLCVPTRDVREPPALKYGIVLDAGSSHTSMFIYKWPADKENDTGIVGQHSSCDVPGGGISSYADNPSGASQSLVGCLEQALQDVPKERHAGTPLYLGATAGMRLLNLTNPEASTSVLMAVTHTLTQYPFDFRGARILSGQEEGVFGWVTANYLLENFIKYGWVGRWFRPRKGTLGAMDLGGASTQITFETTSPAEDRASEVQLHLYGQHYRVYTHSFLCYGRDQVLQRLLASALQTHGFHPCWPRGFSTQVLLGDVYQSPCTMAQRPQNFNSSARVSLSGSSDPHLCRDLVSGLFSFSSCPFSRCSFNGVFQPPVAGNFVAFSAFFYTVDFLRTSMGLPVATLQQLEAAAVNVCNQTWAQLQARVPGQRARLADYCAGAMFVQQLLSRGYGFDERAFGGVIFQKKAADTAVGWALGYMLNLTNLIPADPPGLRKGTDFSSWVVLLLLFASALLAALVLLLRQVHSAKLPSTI

[3] = target: T2, cynomolgus ENTPD2, full length, on cells (cynomolgus macaque, UniProt Q9Y5L3 1-495 (human entry)); test: cell-based or functional assay
T2 chain: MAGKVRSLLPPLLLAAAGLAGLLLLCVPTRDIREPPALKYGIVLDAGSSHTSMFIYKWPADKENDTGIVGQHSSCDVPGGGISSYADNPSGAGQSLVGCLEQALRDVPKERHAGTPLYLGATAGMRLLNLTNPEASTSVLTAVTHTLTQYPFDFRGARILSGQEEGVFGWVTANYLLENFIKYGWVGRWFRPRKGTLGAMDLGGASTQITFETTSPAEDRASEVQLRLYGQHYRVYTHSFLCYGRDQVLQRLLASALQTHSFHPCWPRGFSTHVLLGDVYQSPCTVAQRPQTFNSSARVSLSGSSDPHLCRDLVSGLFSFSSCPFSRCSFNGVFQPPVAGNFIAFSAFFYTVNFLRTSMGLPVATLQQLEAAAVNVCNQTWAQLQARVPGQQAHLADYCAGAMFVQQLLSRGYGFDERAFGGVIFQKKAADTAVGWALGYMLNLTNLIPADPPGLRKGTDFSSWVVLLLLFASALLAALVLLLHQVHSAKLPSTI

[4] = target: T2, cynomolgus ENTPD2, full length, on cells; test: FACS
[5] = target: T3, mouse ENTPD2, full length, on cells (mouse, UniProt O55026 1-495); test: cell-based or functional assay
T3 sequence: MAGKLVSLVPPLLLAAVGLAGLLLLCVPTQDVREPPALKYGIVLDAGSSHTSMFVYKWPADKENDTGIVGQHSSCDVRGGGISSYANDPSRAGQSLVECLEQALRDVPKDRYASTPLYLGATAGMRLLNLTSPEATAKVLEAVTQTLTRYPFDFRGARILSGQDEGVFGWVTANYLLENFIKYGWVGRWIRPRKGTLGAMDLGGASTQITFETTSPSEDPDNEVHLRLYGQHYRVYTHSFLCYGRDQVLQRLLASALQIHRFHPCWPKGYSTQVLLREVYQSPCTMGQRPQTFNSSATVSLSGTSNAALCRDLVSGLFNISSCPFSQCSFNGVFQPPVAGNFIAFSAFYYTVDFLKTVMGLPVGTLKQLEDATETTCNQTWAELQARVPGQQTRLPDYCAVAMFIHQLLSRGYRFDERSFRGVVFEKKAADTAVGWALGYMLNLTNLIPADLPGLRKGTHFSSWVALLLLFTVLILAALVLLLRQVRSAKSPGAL

[6] = target: T1, human ENTPD2, full length, on cells; test: flow cytometry on human ENTPD2 engineered B16LM3 clone B5 cells (human ENTPD2 expressed, endogenous mouse ENTPD2 knocked out); anti-mouse IgG-AF647 secondary. The text names the antibody as mAb13.

Row | Binder | ENTPD2 Biochemical Assay at 1 uM ATP IC50 [1] [nM] | Human ENTPD2 NIH/3T3 Assay % inhibition [2] [%] | Human ENTPD2 NIH/3T3 Assay IC50 [2] [nM] | Cyno ENTPD2 NIH/3T3 Assay % inhibition [3] [%] | Cyno ENTPD2 NIH/3T3 Assay IC50 [3] [nM] | ENTPD2 Functional Assay IC50 (nM), mouse ENTPD2 NIH/3T3 cells [5] [nM] | other results
1 | ANTI-HUMAN ENTPD2 MAB1 (antibody, human IgG1, kappa, V domains shown) VH: EVQLVQSGAEVKKPGESLKISCKASGYTFTDYNMDWVRQMPGKGLEWMGDINPKYDISTYNQQFKGQVTISADKSIRTAYLQWSSLKASDTAMYYCARRGFFLYYGINYYYFDVWGQGTLVTVSS VL: DIQLTQSPSSLSASVGDRVTITCSASSSVSYIHWFQQKPGKAPKLLIYSTSNLASGVPSRFSGSGSGTFFTLTISSLQPEDFATYFCHQWSSYPWTFGQGTKVEIKR | 0.52 | 92 | 1.1 | 91 | 4.1 |  | RKO Assay % inhibition [2]: 97%; RKO Assay IC50 [2]: 0.8 nM
2 | ANTI-HUMAN ENTPD2 MAB16 (antibody, human IgG1, kappa, V domains shown) VH: DIQLQESGPGLVKPSQSLSLTCSVTGYSITSGYYWNWIRQFPGNKLEWMGYISYDGDNNYNPSLKNRISITRDTSKNQFFLKLSSVTTEDTATYYCAGGYYRYGLSYYYVMDYWGQGTSVTVSS VL: DTVLTQSPASLAVSLGQRATISCKASQSVDYDGNSYMNWYQQKPGQPPKLLIYAASNLESGIPARFSGSGSGTDFTLNIHPVEEEDAATYYCQQSNEDPPTFGGGTKLEIKR | 77.3 | 30 | > 133 | 5 | > 133 |  | 
3 | ANTI-HUMAN ENTPD2 MAB18 (antibody, human IgG1, kappa, V domains shown) VH: DIQLQESGPGLVKPSQSLSLTCSVTGYSITSGYYWNWIRQFPGNKLEWMGYISYDGDNNYNPSLKNRISITRDTSKNQFFLKLSSVTTEDTATYYCAGGYYRYGLGSYSGSYYYVMDYWGQGTSVTVSS VL: DTVLTQSPASLAVSLGQRATISCKASQSVDYDGNSYMNWYQQKPGQPPKLLIYAASNLESGIPARFSGSGSGTDFTLNIHPVEEEDAATYYCQQSNEDPPTFGGGTKLEIKR |  | 88 | 0.4 | 68 | 20 |  | 
4 | ANTI-mouse ENTPD2 MAB13 (antibody, mouse IgG2a, kappa, V domains shown, also called Anti-ENTPD2 mAb13) VH: QVQLVQSGAELKQPGQSVKISCKASGYTFTHYGMNWVKQAPGQGLKWMGWINTDTGNPTYADDFKGRFVFSLDTSVSTAYLQISNLKNEDTATYYCVRYGTLYSGYGFFFDSWGQGTLVTVSS VL: DIMMTQSPSSLSVSAGEKATITCKSSQSLFNSNTNKNYLNWYLQKPGQSPKLLFYYASTRHTGVPDRFIGSGSGTDFTLTITSVQDEDLADYYCQQWYSYPWTFGPGTKLEIKR |  |  |  |  |  | 2.8 | binding result [4]: no binding; binding result [6]: no binding
5 | ANTI-mouse ENTPD2 MAB15 (antibody, mouse IgG2a, kappa, V domains shown) VH: QVQLVQSGAELKQPGQSVKISCKASGYTFHHYGMNWVKQAPGQGLKWMGWINTDTGNPTYADDFKGRFVFSLDTSVSTAYLQISNLKNEDTATYYCVRYGTLYSGYGFFFDSWGQGTLVTVSS VL: DIMMTQSPSSLSVSAGEKATITCKSSQSLFNSNTNKNYLNWYLQKPGQSPKLLFYYASTRHTGVPDRFIGSGSGTDFTLTITSVQDEDLADYYCQQWYSYPWTFGPGTKLEIKR |  |  |  |  |  | 5.9 | 
6 | ANTI-mouse ENTPD2 MAB14 (antibody, mouse IgG2a, kappa, V domains shown) VH: QVQLVQSGAELKQPGQSVKISCKASGYTFWHYGMNWVKQAPGQGLKWMGWINTDTGNPTYADDFKGRFVFSLDTSVSTAYLQISNLKNEDTATYYCVRYGTLYSGYGFFFDSWGQGTLVTVSS VL: DIMMTQSPSSLSVSAGEKATITCKSSQSLFNSNTNKNYLNWYLQKPGQSPKLLFYYASTRHTGVPDRFIGSGSGTDFTLTITSVQDEDLADYYCQQWYSYPWTFGPGTKLEIKR |  |  |  |  |  | 4.6 | 
7 | ANTI-HUMAN ENTPD2 MAB19 (antibody, human IgG1, kappa, V domains shown) VH: EVQLQQFGAELVKPGTSVKISCKASGYTFTDYNMDWVKQSHGKSLEWIGDINPNYDITTYNQRFKGKATLTVDKSSSTAYMELRSLTSEDTAVYYCARRGFFPYYGNSYYYFDVWGAGTTVTVSS VL: QIVLTQSPTIMSASLGEEITLTCSASSSVSYMHWYQQKSGTSPKLLIYSTSNLASGVPSRFSGSGSGTFYSLTISSVEAEDAADYYCHQWSNYPWTFGGGTKLEIKR | 4.09 |  |  |  |  |  | 
8 | ANTI-HUMAN ENTPD2 MAB21 (antibody, human IgG1, kappa, V domains shown) VH: EVQLQQSGPELVKPGASVKISCKTSGYTFTEYTMHWVKQSHGKSLEWIGGINPNNGITTYNQKFKGKATLTVDKSSSTAYMDLRSLTSEGSAVYYCARRGFPIYYYGTSLYYFDYWGQGTTLTVSS VL: QIVLTQSPAIMSASLGEEITLTCSASSSVSYMHWYQQRSGTSPKLLIYTTSNLASGVPSRFSGSGSGTFYSLTISSVEAEDAADYYCHQWSSYPWTFGGGTKLEIKR | 0.87 |  |  |  |  |  | 
9 | ANTI-HUMAN ENTPD2 MAB20 (antibody, human IgG1, kappa, V domains shown) VH: EVQLQQFGAELVKPGASVKISCKASGYTFTDYNMDWVKQSHGKSLEWIGDINPNYDITSYNQKFKGKATLTVDKSSSTAYMELRSLTSEDTAVYYCARRGFFLYYGSSYYYFDVWGAGTTVTVSS VL: QIVLTQSPAIMSASLGEEITLTCSASSSVSYMHWYQQKSGTSPKLLIYSTSNLASGVPSRFSGSGSGTFYSLTISSVEAEDAADYYCHQWSSYPWTFGGGTKLEIKR | 17.5 |  |  |  |  |  | 
10 | ANTI-HUMAN ENTPD2 MAB17 (antibody, human IgG1, kappa, V domains shown) VH: EVQLQQFGAELVKPGASVKISCKASGYTFTDYNMDWVKQSHGKSLEWIGDINPKYDISTYNQQFKGKATLTVDKSSSTAYMELRSLTSEDTAVYYCARRGFFLYYGINYYYFDVWGAGTTVTVSS VL: QIVLTQSPAIMSASLGEEITLTCSASSSVSYIHWYQQKSGTSPTLLIYSTSNLASGVPSRFSGSGSGTFYSLTISSVEAEDAADYYCHQWSSYPWTFGGGTKLEIKR | 0.27 | 98 | 0.6 | 91 | 1 |  | RKO Assay % inhibition [2]: 96%; RKO Assay IC50 [2]: 0.5 nM
